The record followed here is PMC3510490, “Structure of Actin-related protein 8 and its contribution to nucleosome binding” (Nucleic Acids Research, 2012).

The test system of series [1] is Yeast Arp8;Yeast Arp4;Actin (INO80 sub-complex I);Ino80 HSA domain (INO80 sub-complex I) (Saccharomyces cerevisiae;Saccharomyces cerevisiae;Saccharomyces cerevisiae;Saccharomyces cerevisiae). Nature of the series: fluorescence titration. The conditions noted are these: 20 mM Tris pH 7.5, 150 mM KCl, 5% glycerol, 1 mM TCEP, 0.01% CHAPS, 0.01% octylglucoside, room temperature 20-30 min, labelled species 0.5-1 nM, protein ….

For series [2], the system named is Human Arp8 full-length (Homo sapiens). Briefly: fluorescence titration. The conditions noted are these: 20 mM Tris pH 7.5, 150 mM KCl, 5% glycerol, 1 mM TCEP, 0.01% CHAPS, 0.01% octylglucoside, room temperature 20-30 min, labelled species 0.5-1 nM, protein ….
Series [3] concerns Yeast Arp8 (Saccharomyces cerevisiae). Nature of the series: fluorescence titration. The following applies: 20 mM Tris pH 7.5, 150 mM KCl, 5% glycerol, 1 mM TCEP, 0.01% CHAPS, 0.01% octylglucoside, room temperature 20-30 min, labelled species 0.5-1 nM, protein ….
Series [4] deals with Human Arp8 (Δ1-33) (Homo sapiens). Nature of the series: fluorescence titration. The conditions noted are these: 20 mM Tris pH 7.5, 150 mM KCl, 5% glycerol, 1 mM TCEP, 0.01% CHAPS, 0.01% octylglucoside, room temperature 20-30 min, labelled species 0.5-1 nM, protein ….
The target in series [5] is H2A–H2B dimer (Xenopus laevis) (UniProt P06897). Nature of the series: other fluorescence titration; Arp constructs or sub-complex titrated (1 to 5000 nM) into fluorescently labelled histone complexes or nucleosomes kept at 0.5-1 nM, 40 µl in microplates; 20 mM Tris pH 7.5, 150 mM KCl, 5% glycerol, 1 mM TCEP, 0.01% CHAPS, 0.01% octylglucoside; room temperature, 20-30 min; apparent Kd and Hill coefficient from non-linear fit; quadruplicates.

Series [6] has as its target 207-bp nucleosome (Xenopus laevis). The description is as above.
For series [7], the system named is Yeast Arp4 (Saccharomyces cerevisiae). Briefly: fluorescence titration. The following applies: 20 mM Tris pH 7.5, 150 mM KCl, 5% glycerol, 1 mM TCEP, 0.01% CHAPS, 0.01% octylglucoside; room temperature 20-30 min; labelled species 0.5-1 nM, protein ….

Sequence of Full-length Homo sapiens Arp8 (Q9H981 whole entry): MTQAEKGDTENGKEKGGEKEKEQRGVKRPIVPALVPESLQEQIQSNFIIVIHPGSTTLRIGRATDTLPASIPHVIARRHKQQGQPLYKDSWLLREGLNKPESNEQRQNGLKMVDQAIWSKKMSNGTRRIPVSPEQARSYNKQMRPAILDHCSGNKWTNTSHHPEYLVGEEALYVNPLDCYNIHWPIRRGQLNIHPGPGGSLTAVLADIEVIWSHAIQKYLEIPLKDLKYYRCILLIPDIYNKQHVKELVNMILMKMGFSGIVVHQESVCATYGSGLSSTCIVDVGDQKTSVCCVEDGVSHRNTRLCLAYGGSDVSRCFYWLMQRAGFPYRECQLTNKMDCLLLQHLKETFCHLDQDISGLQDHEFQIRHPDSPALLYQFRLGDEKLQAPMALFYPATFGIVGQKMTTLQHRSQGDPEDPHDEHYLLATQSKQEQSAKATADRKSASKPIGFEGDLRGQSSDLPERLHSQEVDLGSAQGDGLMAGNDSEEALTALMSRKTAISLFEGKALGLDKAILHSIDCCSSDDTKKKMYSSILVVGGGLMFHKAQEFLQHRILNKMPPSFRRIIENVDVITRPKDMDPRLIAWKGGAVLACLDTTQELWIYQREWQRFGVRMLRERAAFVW
Sequence of Homo sapiens Arp8 (Δ1–33) (Q9H981 34-624, stated change not applied): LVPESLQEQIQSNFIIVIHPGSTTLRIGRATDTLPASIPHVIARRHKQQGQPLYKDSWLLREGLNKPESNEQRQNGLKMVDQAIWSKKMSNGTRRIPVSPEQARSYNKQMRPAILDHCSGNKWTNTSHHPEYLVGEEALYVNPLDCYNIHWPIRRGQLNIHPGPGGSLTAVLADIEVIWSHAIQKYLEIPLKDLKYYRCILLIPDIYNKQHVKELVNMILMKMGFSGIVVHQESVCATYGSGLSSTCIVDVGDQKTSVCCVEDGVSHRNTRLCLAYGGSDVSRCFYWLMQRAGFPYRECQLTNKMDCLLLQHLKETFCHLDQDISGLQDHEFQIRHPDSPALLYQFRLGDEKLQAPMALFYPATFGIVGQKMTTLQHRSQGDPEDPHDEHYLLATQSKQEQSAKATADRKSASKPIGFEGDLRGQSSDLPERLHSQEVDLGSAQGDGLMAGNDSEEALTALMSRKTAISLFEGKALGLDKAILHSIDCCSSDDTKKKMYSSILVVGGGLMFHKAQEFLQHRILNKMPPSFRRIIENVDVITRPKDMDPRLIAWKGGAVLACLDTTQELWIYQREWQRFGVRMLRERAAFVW

Turning to 30-bp DNA ('601' sequence linker DNA), the Kd was 366 nM in series [1] (5' C6 amine), 6940 nM in series [2] (5' C6 amine), 1920 nM in series [3] (5' C6 amine) and 6330 nM in series [4] (5' C6 amine).

In the case of “Full-length Homo sapiens Arp8 (from UniProt Q9H981 1-624) (natural protein)”, the Kd in series [5] was 555 nM; in series [6] it was 51 nM.

As to “Saccharomyces cerevisiae Arp4 (from UniProt P80428 1-489) (natural protein)”, the Kd in series [6] stood at 204 nM.

For 207-bp nucleosome, the Kd in series [1] worked out at 63.6 nM; in series [7], 204 nM; in series [2] it was 51 nM; in series [3], 314 nM; in series [4], 62.6 nM.

Consider “Saccharomyces cerevisiae INO80 sub-complex I (Arp8–Arp4–actin-HSA) (from UniProt Q12386 1-881; P80428 1-489; P60010 1-375; P53115 462-685)”, for which the Kd in series [5] was determined as 853 nM; in series [6] it was 63.6 nM.

As to “Saccharomyces cerevisiae Arp8 (from UniProt Q12386 1-881) (natural protein)”, the Kd in series [5] turned out to be 1950 nM; in series [6], 314 nM.

For “Homo sapiens Arp8 (Δ1–33) (from UniProt Q9H981 34-624) (domain or fragment)”, the results for the Kd in series [5] and in series [6] were 367 nM and 62.6 nM, respectively.
